The values that follow are results of earlier work, collected in paper doi:10.1101/2024.02.22.581550.

This data set addresses Cys145 (UniProt position 145, PILIPCHRVVC).

Consider “O6-alkylguanine-DNA alkyltransferase (hAGT; MGMT, methylated-DNA--protein-cysteine methyltransferase) (Homo sapiens)”, for which the pKa entry was “∼5”.
